From the supplement of paper PMC10065799, “High-throughput profiling of sequence recognition by tyrosine kinases and SH2 domains using bacterial peptide display” (eLife, 2023)

Tests used:
c-Src SH2 = assay: SH2 binding enrichment of the phosphorylated peptide, bacterial display (enrichment ratio); higher = better substrate or ligand; peptides without Tyr show the background
Grb2 SH2 = Grb2 SH2 (UniProt P62993); assay: as above
SHP2-C SH2 = assay: as above
FGFR1 = FGFR1 (UniProt P11362); assay: phosphorylation enrichment, bacterial display (enrichment ratio); higher = better substrate or ligand; peptides without Tyr show the background
FGFR1, sequence (P11362 whole entry, looked up): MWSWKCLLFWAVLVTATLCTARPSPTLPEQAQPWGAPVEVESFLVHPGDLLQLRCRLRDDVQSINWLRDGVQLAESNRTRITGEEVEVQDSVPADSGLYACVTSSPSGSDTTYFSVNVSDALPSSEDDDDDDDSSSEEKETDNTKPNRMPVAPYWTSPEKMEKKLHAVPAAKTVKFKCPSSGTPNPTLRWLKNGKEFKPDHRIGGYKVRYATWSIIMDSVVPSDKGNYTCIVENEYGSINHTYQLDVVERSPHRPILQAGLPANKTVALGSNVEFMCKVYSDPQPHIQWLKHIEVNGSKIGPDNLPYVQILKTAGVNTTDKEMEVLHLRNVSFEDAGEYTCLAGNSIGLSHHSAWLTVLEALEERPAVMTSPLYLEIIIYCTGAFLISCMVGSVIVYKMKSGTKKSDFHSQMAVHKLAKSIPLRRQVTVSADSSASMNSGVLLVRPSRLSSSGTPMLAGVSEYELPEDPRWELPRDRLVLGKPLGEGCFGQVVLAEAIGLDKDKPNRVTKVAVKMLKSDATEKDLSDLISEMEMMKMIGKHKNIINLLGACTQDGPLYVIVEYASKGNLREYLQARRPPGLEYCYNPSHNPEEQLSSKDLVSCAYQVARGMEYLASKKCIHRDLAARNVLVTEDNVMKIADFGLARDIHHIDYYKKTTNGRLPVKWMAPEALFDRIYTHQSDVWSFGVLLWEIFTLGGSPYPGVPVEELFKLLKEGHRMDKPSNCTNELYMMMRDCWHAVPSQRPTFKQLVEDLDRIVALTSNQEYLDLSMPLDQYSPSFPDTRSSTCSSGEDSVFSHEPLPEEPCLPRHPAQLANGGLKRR

c-Src = assay: as above
Hck = Hck (UniProt P08631); assay: as above
Jak2 = Jak2 (UniProt O60674); assay: as above
Jak2, sequence (O60674 whole entry, looked up): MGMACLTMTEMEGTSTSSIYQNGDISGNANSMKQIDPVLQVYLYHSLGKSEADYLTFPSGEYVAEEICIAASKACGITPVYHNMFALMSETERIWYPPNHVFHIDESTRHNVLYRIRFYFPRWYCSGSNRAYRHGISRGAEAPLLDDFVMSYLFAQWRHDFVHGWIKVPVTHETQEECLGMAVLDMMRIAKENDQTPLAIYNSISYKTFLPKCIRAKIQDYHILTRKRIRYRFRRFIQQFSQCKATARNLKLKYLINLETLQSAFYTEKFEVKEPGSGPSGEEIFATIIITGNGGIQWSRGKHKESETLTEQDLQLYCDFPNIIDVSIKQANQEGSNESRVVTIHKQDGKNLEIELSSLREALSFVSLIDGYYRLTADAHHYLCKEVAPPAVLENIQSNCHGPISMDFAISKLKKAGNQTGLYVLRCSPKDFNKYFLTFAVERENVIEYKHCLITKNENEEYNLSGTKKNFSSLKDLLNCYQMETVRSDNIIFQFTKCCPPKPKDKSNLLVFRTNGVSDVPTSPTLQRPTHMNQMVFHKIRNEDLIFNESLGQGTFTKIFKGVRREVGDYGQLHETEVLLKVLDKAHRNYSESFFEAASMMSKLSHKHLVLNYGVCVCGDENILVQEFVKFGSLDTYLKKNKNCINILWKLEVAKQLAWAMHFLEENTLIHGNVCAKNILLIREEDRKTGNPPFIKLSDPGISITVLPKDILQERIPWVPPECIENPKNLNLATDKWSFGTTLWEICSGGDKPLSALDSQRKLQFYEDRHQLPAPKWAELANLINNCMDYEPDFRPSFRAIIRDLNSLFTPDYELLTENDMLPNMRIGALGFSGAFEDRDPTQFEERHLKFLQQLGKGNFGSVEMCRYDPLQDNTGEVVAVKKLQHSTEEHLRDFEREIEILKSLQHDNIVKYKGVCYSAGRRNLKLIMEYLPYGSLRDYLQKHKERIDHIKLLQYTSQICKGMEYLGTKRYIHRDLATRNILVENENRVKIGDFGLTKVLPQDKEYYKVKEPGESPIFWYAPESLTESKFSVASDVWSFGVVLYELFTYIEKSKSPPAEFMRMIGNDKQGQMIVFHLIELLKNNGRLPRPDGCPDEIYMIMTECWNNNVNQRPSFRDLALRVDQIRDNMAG

AncSZ = assay: as above
FGFR3 = FGFR3 (UniProt P22607); assay: as above
EPHB1 = EPHB1 (UniProt P54762); assay: as above
c-Abl (mouse) = assay: as above
Fyn = Fyn (UniProt P06241); assay: as above
Fer (mouse) = assay: as above
MERTK = MERTK (UniProt Q12866); assay: as above
MERTK, sequence (Q12866 whole entry, looked up): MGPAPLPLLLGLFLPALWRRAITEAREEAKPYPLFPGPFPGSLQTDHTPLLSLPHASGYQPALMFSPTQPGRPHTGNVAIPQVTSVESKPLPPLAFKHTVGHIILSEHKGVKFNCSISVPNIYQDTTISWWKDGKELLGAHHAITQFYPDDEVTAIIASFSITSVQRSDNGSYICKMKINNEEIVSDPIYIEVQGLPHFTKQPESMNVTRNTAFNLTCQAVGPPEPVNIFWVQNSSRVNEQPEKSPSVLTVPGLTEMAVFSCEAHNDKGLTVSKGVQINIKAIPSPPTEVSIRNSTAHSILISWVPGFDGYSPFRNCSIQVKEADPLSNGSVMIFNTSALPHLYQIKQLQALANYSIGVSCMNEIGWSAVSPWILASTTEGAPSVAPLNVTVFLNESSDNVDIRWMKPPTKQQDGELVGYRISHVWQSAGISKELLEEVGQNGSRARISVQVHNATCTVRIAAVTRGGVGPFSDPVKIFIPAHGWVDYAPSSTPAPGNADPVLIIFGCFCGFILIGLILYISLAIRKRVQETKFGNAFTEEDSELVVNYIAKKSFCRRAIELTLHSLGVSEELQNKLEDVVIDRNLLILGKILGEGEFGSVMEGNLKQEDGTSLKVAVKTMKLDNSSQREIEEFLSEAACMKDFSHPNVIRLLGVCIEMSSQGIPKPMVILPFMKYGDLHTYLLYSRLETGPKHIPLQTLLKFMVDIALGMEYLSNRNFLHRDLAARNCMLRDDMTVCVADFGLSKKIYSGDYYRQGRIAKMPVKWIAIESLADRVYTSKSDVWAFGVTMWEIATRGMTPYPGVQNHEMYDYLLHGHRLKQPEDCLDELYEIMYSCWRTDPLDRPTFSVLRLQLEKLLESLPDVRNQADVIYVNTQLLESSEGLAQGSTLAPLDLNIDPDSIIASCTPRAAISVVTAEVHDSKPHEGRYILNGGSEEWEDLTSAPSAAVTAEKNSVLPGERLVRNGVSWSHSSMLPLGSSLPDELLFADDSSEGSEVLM

EPHB2 = EPHB2 (UniProt P29323); assay: as above
EPHB2, sequence (P29323 whole entry, looked up): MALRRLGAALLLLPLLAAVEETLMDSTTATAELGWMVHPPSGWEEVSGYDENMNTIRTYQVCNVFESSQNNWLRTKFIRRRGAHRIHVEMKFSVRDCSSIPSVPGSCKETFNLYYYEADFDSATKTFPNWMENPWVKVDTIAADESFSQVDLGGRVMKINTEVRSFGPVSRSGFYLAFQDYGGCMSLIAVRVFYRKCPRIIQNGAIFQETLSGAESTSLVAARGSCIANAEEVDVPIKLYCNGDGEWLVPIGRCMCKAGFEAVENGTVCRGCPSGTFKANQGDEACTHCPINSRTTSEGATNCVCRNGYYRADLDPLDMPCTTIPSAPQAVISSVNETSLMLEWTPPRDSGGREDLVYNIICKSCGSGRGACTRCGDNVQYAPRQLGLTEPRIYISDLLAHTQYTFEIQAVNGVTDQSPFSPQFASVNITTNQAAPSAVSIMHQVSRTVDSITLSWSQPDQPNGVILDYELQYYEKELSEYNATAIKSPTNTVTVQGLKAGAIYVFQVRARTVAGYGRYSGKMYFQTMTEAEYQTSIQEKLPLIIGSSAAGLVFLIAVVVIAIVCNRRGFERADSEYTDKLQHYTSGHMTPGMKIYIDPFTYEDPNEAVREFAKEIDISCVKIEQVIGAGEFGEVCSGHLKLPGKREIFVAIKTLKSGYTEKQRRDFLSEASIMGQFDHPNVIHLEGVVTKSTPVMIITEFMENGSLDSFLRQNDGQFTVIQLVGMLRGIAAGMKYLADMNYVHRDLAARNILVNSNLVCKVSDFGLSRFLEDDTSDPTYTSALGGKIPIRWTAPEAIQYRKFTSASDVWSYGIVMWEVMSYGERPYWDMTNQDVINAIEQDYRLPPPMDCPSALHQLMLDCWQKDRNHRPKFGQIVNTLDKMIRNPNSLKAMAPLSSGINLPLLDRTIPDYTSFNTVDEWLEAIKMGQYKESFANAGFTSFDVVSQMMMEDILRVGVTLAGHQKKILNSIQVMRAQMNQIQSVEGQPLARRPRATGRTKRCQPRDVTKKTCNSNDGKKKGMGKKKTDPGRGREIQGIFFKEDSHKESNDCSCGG

Fes = Fes (UniProt P07332); assay: as above
Fes, sequence (P07332 whole entry, looked up, the tested form may be a part): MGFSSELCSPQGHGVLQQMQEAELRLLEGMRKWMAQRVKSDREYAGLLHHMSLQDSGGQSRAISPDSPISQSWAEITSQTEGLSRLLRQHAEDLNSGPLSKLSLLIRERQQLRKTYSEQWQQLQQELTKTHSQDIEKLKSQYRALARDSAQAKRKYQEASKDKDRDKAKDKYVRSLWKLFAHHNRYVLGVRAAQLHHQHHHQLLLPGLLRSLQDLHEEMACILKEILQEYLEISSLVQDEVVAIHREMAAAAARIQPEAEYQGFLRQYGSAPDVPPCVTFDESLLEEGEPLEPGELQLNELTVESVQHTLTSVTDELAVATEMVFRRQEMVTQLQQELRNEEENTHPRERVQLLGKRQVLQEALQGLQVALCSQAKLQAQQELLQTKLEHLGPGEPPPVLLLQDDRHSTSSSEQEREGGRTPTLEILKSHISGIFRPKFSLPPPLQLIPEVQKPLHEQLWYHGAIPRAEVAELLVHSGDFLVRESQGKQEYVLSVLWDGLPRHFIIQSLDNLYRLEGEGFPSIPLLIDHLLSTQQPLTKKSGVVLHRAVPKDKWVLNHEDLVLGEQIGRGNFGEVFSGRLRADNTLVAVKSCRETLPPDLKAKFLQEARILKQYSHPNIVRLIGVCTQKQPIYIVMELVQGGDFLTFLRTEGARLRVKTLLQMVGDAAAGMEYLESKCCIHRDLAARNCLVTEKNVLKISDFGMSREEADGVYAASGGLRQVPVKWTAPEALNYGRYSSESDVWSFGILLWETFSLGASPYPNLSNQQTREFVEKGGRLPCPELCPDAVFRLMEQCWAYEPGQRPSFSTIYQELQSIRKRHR
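Throughout, for SH2 binding enrichment of the phosphorylated peptide, bacterial display: peptide library displayed on the E. coli surface as eCPX fusions, selected cells deep-sequenced, score is each peptide's frequency after selection divided by its frequency in the input.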
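Throughout, for phosphorylation enrichment, bacterial display: 11-residue human phosphosite peptides and single-mutation variants displayed on the E. coli surface, counted by deep sequencing, each peptide's frequency after selection divided by its frequency in the unselected input library; frequency after pTyr selection over input frequency; kinase dosed for 20-30% of maximal phosphorylation in three min.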

Row | Sequence | SH2 binding enrichment (c-Src SH2) | SH2 binding enrichment (Grb2 SH2) | SH2 binding enrichment (SHP2-C SH2) | phosphorylation enrichment (FGFR1) | phosphorylation enrichment (c-Src) | phosphorylation enrichment (Hck) | phosphorylation enrichment (Jak2) | phosphorylation enrichment (AncSZ) | phosphorylation enrichment (FGFR3) | phosphorylation enrichment (EPHB1) | phosphorylation enrichment (c-Abl (mouse)) | phosphorylation enrichment (Fyn) | phosphorylation enrichment (Fer (mouse)) | phosphorylation enrichment (MERTK) | phosphorylation enrichment (EPHB2) | phosphorylation enrichment (Fes)
1 | LAAPKYKLNVD [SMARCA2_Y1190_A1188P] | 0.325 | 0.713 | 0.592 | 0.258 | 0.44 | 0.551 | 0.353 | 0.46 | 0.518 | 0.205 | 0.422 | 0.546 | 0.291 | 0.346 | 0.307 | 0.961
2 | VLAHKYHGGGG [HBB_Y146_A141V] | 0.464 | 0.939 | 0.852 | 0.349 | 0.363 | 0.405 | 0.434 | 0.376 | 0.352 | 0.354 | 0.405 | 0.366 | 0.366 | 0.352 | 0.362 | 0.498
3 | CQAHGYFCQLI [STK11_Y156] | 0.984 | 1.2 | 1.17 | 0.479 | 0.428 | 0.436 | 0.751 | 0.873 | 0.609 | 0.413 | 0.514 | 0.405 | 0.402 | 0.407 | 0.546 | 0.836

More lines, main results first:

Row | SH2 binding enrichment (c-Src SH2) | SH2 binding enrichment (Grb2 SH2) | SH2 binding enrichment (SHP2-C SH2) | Sequence | phosphorylation enrichment (FGFR1) | phosphorylation enrichment (c-Src) | phosphorylation enrichment (Hck) | phosphorylation enrichment (Jak2) | phosphorylation enrichment (AncSZ) | phosphorylation enrichment (FGFR3) | phosphorylation enrichment (EPHB1) | phosphorylation enrichment (c-Abl (mouse)) | phosphorylation enrichment (Fyn) | phosphorylation enrichment (Fer (mouse)) | phosphorylation enrichment (MERTK) | phosphorylation enrichment (EPHB2) | phosphorylation enrichment (Fes)
4 | 0.448 | 0.679 | 0.691 | MENFIYESMQF [CYP19A1_Y361_R365Q_YF] | 0.888 | 7.14 | 7.84 | 1.04 | 1.81 | 0.759 | 8.07 | 4.06 | 9.33 | 16.1 | 6.46 | 5.77 | 6.34
5 | 0.549 | 0.766 | 0.79 | GGYTCYCDGKK [PROS1_Y266] | 0.457 | 0.499 | 0.462 | 1.2 | 0.985 | 0.728 | 0.537 | 0.915 | 0.403 | 0.484 | 0.439 | 0.474 | 1.38
6 | 0.497 | 0.865 | 0.354 | RNAAEYPLSSG [ABL1_Y139_L140P] | 0.445 | 0.522 | 0.596 | 0.41 | 0.426 | 0.485 | 0.337 | 0.647 | 0.401 | 0.402 | 0.453 | 0.345 | 0.898
7 | 0.497 | 0.972 | 0.588 | ETAENYLGHTA [HSPA9_Y181] | 0.486 | 0.414 | 0.47 | 0.622 | 0.858 | 0.523 | 0.43 | 0.559 | 0.442 | 0.443 | 0.503 | 0.652 | 0.865
8 | 0.486 | 0.844 | 0.718 | IDLEKYKLLPE [DHFR_Y157] | 0.546 | 0.39 | 0.433 | 0.92 | 0.956 | 0.683 | 0.528 | 0.775 | 0.511 | 0.51 | 0.484 | 0.738 | 1.2
